US20130280318A1, “Tissue Scaffolds for Controlled Release of Active Agents” (The Trustees of Columbia University in the City of New York, priority 2010, published 2013)

Test system: Chondrocytes
Test: Chondrocyte growth on scaffolds (total DNA, Picogreen)
Assay type: cell-based, bovine
Settings: TGF-β3 released from tissue scaffold
Description: Chondrocytes enzymatically digested from bovine calves (6×10^4 cells/cm^2) were cultured on scaffolds in serum-free ITS+ media. Experimental group included PLGA-TGFβ3 scaffolds, while cells cultured on PLGA and on PLGA with exogenous TGF-β3 (1 ng/mL) served as controls. Viability was evaluated with confocal microscopy (n=3).
Total DNA (n=6) was quantified by Picogreen Assay. Glycosaminoglycan (GAG) and collagen syntheses (n=6) were assessed by dimethylmethylene blue (DMMB) and Sircol assays, respectively. Gene expressions (Col I, II, and X) were analyzed by RT-PCR (n=4).

B1: transforming growth factor-beta 3 (protein, UniProt P10600 301-412, looked up)
Transforming growth factor …: ALDTNYCFRNLEENCCVRPLYIDFRQDLGWKWVHEPKGYYANFCSGPCPYLRSADTTHSTVLGLYNTLNPEASASPCCVPQDLEPLTILYYVGRTPKVEQLSNMVVKSCKCS
modifications: Transforming growth factor beta-3
With B1 the “bioactivity of released TGF-β3 (chondrocyte proliferation and biosynthesis)” value was “bioactive”.
